# Measurements: US8703459B2, “Catalytic domains of beta(1,4)-galactosyltransferase I having altered metal ion specificity” (The United States of America, as represented by the …, priority 2003, dated 2014)
# Marks after values point to notes of the source that are not given here.
# How the values were obtained:
# [1] = Metal ion activation curve, metal binding constants for Mn^2+; format: biochemical, bovine
# Source text: The activation curve of M344E-Gal-T1, using Mn^2+, is strikingly different from that of the wild-type enzyme (FIGS. 1A and 1B). In contrast to the wild type enzyme, the velocity curve obtained with the Mn^2+ concentration for the M344E-Gal-T1 mutant is not sigmoidal. On the other hand, the same curve for the M344H-Gal-T1 mutant in the presence of the Mg^2+ is sigmoidal (FIG. 1C). The observation that activation of the wild type enzyme by metal ions is sigmoidal has been interpreted as involving two metal binding sites in the enzyme: one with high affinity (Kd1), which is associated with low velocity, and a second site with low affinity (Kd2), which is associated with high velocity (Powell and Brew, J. Biol. Chem., 251:3645 (1976); Boeggeman and Qasba, Glycobiology, 12:395 (2002)). […] The values of the dissociation constant (Kd) for Mn^2+ of the mutant are quite different from that of the wild type (Table IV).
# The enzyme activation data at various concentrations of Mg^2+ were fitted to an equation describing metal binding to a high affinity site (K1) to generate an enzyme form with a low kcat (V1) and to a second, lower affinity site (K2) to generate a form with a higher kcat (V2) (Boeggeman and Qasba, Glycobiology, 12:395 (2002)): […]
# [2] = β4Gal-T enzyme assay, specific activity in the presence of various metal ions; format: biochemical, bovine; conditions: 500 μM UDP-Gal, 25 mM GlcNAc; for Catalytic Activity in the Presence of Various Metal Ions: Co: 0.1 mM Co^2+; for Catalytic Activity in the Presence of Various Metal Ions: Zn: 0.1 mM Zn^2+; for Catalytic Activity in the Presence of Various Metal Ions: Ca / Catalytic Activity in the Presence of Various Metal Ions: Mg / Catalytic Activity in the Presence of Various Metal Ions: Mn / Catalytic Activity in the Presence of Various Metal Ions: Sr: 5 mM metal ion
# Procedure: Protein concentrations were measured using the Bio-Rad Protein Assay kit, based on the method of Bradford and further verified on SDS-PAGE gels using standard protein concentration markers. An in vitro assay procedure for Gal-T1 has been reported previously (Ramakrishnan et al., J. Mol. Biol., 310:205 (2001)). The activities were measured using UDP-Gal as sugar nucleotide donor, and GlcNAc as the acceptor sugar. For the specific activity measurements, a 100 μL incubation mixture containing 25 mM GlcNAc, 5 mM MnCl2 or MgCl2, 20 mM Tris-HCl pH 8.0, 500 μM UDP-Gal, 500 ng M344H-Gal-T1 or 30 ng of C342T-Gal-T1 and 0.5 μCi ^3H-UDP-Gal was used for each Gal-T reaction. The incubation was carried out at 30° C. for 15 minutes. The reaction was terminated by adding of 200 μl cold water, and the mixture was passed through a 0.5 mL bed volume column of AG 1-X8 […] resin (Bio-Rad) to remove any unreacted ^3H-UDP-Gal. The column was washed successively with 300, 400 and 500 μl of cold water, and the column flow-through was diluted with Biosafe scintillation fluid; radioactivity was measured with a Beckman counter. A reaction without the acceptor sugar was used as a control. Only 0.1 mM concentration of ZnCl2 or CoCl2 was used whenever Zn^2+ or Co^2+ was used during the enzyme assay.
Molecule,K1 compared with binding to the primary site of the wild type ([1]; Mn^2+),"Kd ([1]; single metal binding site model, derived from FIG. 1B, read-out: binding constant K1 for Mn^2+) [nM]",Catalytic Activity in the Presence of Various Metal Ions: Co [2],Catalytic Activity in the Presence of Various Metal Ions: Zn [2],Catalytic Activity in the Presence of Various Metal Ions: Ca [2],Catalytic Activity in the Presence of Various Metal Ions: Mg [2],Catalytic Activity in the Presence of Various Metal Ions: Mn [2],Catalytic Activity in the Presence of Various Metal Ions: Sr [2]
"M344E-Gal-T1: bovine β4Gal-T1 catalytic domain (C342T) with Met344 mutated to glutamic acid (protein, listed as Bos taurus) MKFREPLLGGSAAMPGASLQRACRLLVAVCALHLGVTLVYYLAGRDLRRLPQLVGVHPPLQGSSHGAAAIGQPSGELRLRGVAPPPPLQNSSKPRSRAPSNLDAYSHPGPGPGPGSNLTSAPVPSTTTRSLTACPEESPLLVGPMLIEFNIPVDLKLIEQQNPKVKLGGRYTPMDCISPHKVAIIILFRNRQEHLKYWLYYLHPMVQRQQLDYGIYVINQAGESMFNRAKLLNVGFKEALKDYDYNCFVFSDVDLIPMNDHNTYRCFSQPRHISVAMDKFGFSLPYVQYFGGVSALSKQQFLSINGFPNNYWGWGGEDDDIYNRLAFRGMSVSRPNAVIGKCREIRHSRDKKNEPNPQRFDRIAHTKETMLSDGLNSLTYMVLEVQRYPLYTKITVDIGTPS",fifty-fold lower,500,0.24 picomoles per minute per nanogram,0.27 picomoles per minute per nanogram,0.01 picomoles per minute per nanogram,0 picomoles per minute per nanogram,0.32 picomoles per minute per nanogram,0.02 picomoles per minute per nanogram
"M344S: Met344 mutant of β4Gal-T1 (protein, listed as Bos taurus) MKFREPLLGGSAAMPGASLQRACRLLVAVCALHLGVTLVYYLAGRDLRRLPQLVGVHPPLQGSSHGAAAIGQPSGELRLRGVAPPPPLQNSSKPRSRAPSNLDAYSHPGPGPGPGSNLTSAPVPSTTTRSLTACPEESPLLVGPMLIEFNIPVDLKLIEQQNPKVKLGGRYTPMDCISPHKVAIIILFRNRQEHLKYWLYYLHPMVQRQQLDYGIYVINQAGESMFNRAKLLNVGFKEALKDYDYNCFVFSDVDLIPMNDHNTYRCFSQPRHISVAMDKFGFSLPYVQYFGGVSALSKQQFLSINGFPNNYWGWGGEDDDIYNRLAFRGMSVSRPNAVIGKCRSIRHSRDKKNEPNPQRFDRIAHTKETMLSDGLNSLTYMVLEVQRYPLYTKITVDIGTPS",,,0.41 picomoles per minute per nanogram,0.40 picomoles per minute per nanogram,0 picomoles per minute per nanogram,0 picomoles per minute per nanogram,1.97 picomoles per minute per nanogram,0 picomoles per minute per nanogram
"M344A: Met344 mutant of β4Gal-T1, Met344 to Ala (protein, listed as Bos taurus) MKFREPLLGGSAAMPGASLQRACRLLVAVCALHLGVTLVYYLAGRDLRRLPQLVGVHPPLQGSSHGAAAIGQPSGELRLRGVAPPPPLQNSSKPRSRAPSNLDAYSHPGPGPGPGSNLTSAPVPSTTTRSLTACPEESPLLVGPMLIEFNIPVDLKLIEQQNPKVKLGGRYTPMDCISPHKVAIIILFRNRQEHLKYWLYYLHPMVQRQQLDYGIYVINQAGESMFNRAKLLNVGFKEALKDYDYNCFVFSDVDLIPMNDHNTYRCFSQPRHISVAMDKFGFSLPYVQYFGGVSALSKQQFLSINGFPNNYWGWGGEDDDIYNRLAFRGMSVSRPNAVIGKCRAIRHSRDKKNEPNPQRFDRIAHTKETMLSDGLNSLTYMVLEVQRYPLYTKITVDIGTPS",,,0.61^b picomoles per minute per nanogram,0.64 picomoles per minute per nanogram,0 picomoles per minute per nanogram,0 picomoles per minute per nanogram,4.16 picomoles per minute per nanogram,0 picomoles per minute per nanogram
"M344Q: Met344 mutant of β4Gal-T1, Met344 to Gln (protein, listed as Bos taurus) MKFREPLLGGSAAMPGASLQRACRLLVAVCALHLGVTLVYYLAGRDLRRLPQLVGVHPPLQGSSHGAAAIGQPSGELRLRGVAPPPPLQNSSKPRSRAPSNLDAYSHPGPGPGPGSNLTSAPVPSTTTRSLTACPEESPLLVGPMLIEFNIPVDLKLIEQQNPKVKLGGRYTPMDCISPHKVAIIILFRNRQEHLKYWLYYLHPMVQRQQLDYGIYVINQAGESMFNRAKLLNVGFKEALKDYDYNCFVFSDVDLIPMNDHNTYRCFSQPRHISVAMDKFGFSLPYVQYFGGVSALSKQQFLSINGFPNNYWGWGGEDDDIYNRLAFRGMSVSRPNAVIGKCRQIRHSRDKKNEPNPQRFDRIAHTKETMLSDGLNSLTYMVLEVQRYPLYTKITVDIGTPS",,,0.80^b picomoles per minute per nanogram,0.71 picomoles per minute per nanogram,0 picomoles per minute per nanogram,0 picomoles per minute per nanogram,1.91 picomoles per minute per nanogram,0 picomoles per minute per nanogram
